Data from the nanobody polyreactivity screen of Harvey et al. (2022).

Assay: yeast display, Sf9 membrane polyspecificity reagent, FACS + sequencing; frameworks hold sequencing errors
Outline: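 Using colony PCR, genes from sorted yeast display clones were amplified, then sequenced on MiSeq at 2 × 250 and filtered by CDR length. The clones had been stained with 10% biotinylated, detergent-solubilized Sf9 membrane reagent for 1 hour at 4 °C and sorted by FACS into low and high (top ~1%) gates on anti-HA and streptavidin fluorescence. Polyreactivity labels come from the gate of origin.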

Which “polyreactivity (PSR sort gate)” value does the source give for “QVQLVESGGGLVQAGGSLRLSCAASGRTFSYYTMGWYRQAPGKERELVAAITSSGGSTYYADSVKGRFTISRDNAKNTVYLQMNSLKPEDTAVYYCAVLNYAGKYYYWGQGTQVTVSS” here?
Its value is “high polyreactivity”.

Which “polyreactivity (PSR sort gate)” value does the source give for “QVQLVESGGGLVQAGGSLRLSCAASGRTFTAYAMGWYRQAPGKERELVASISSGVTYADSVKGRFTISRDNAKNTVYLQMTSLKPEDTAVYYCAARLWYVQGYVPYVHHRFDYWGQGTQVTVSS” here?
The value was “low polyreactivity”.

For “QVQLVESGGGLVQAGGSLRLSCAASGRTFTCYAMGWYRQAPGKERELVATAITSGGSTNYADSVKGRFTISRDNAKNTVYLQMISLKPEDTAVYYCAAVPTEFGNRLEYDYWGQGTQVTVSS”, which “polyreactivity (PSR sort gate)” value is on record?
The value was “low polyreactivity”.

Which “polyreactivity (PSR sort gate)” value does the source give for “QVQLVESGGGLVQAGGSLRLSCAASGRTFTFYTMGWDRQAPGKERELVARITGGGSTYYADSVKGRFTISRDNAKNTVYLQMNSLKPEDTAVYYCAAASGTKRLYRGTRGDYWGQGTQVTVSS” here?
Its value is “low polyreactivity”.

Which “polyreactivity (PSR sort gate)” value does the source give for “QVQLVESGGGLVQAGGSLRLSCAASGRTFTGNAMGCYRQAPGKERELVAAISTSGTRTSYADSVKGRFTISRDNAKNTVYLQMNSLKPEDTAVYYCAALRKSLYRTYTYDYWGQGTQVTVSS” here?
Its value is “high polyreactivity”.

For “QVQLVESGGGLVQAGGSLRLSCAASGRTFTGNAMGWYRQATGKERELVAAINSGGGRTFYADSVKGRFTISRDNAKNTVYLQMTSLKPEDTAVYYCNAVKYRSYYWGQGTQVTVSS”, which “polyreactivity (PSR sort gate)” value is on record?
The value was “high polyreactivity”.

Which “polyreactivity (PSR sort gate)” value does the source give for “QVQLVESGGGLVQAGGSLRLSCAASGRTFTGYAMGWYRKAPGKERELVAAIRRTASTYYADSVKGRFTISRDNAKNTVYLQMNSLKPEDTAVYYCAVRAAHRGTYYYWGQGTQVTVSS” here?
The value was “high polyreactivity”.

With “QVQLVESGGGLVQAGGSLRLSCAASGRTFTGYAMGWYRQAPGKERELVAAISRRGASTYYADSVKGRFTISRDNAKNTVYLQMNSLKPEDTAVYYCAAYLYGLWSVGRDYWGQGTQVTVSS” as the sequence, how does the “polyreactivity (PSR sort gate)” value read?
The value was “high polyreactivity”.

Which “polyreactivity (PSR sort gate)” value does the source give for “QVQLVESGGGLVQAGGSLRLSCAASGRTFTGYAMGWYRQAPGKERELVASISRRGGSTYYADSVKGRFTISRDNAKNTVYLQMNSLKPEDTAVYSCAADSVRHTYSWWYAVDYWGQGTQVTVSS” here?
Its value is “high polyreactivity”.

Which “polyreactivity (PSR sort gate)” value does the source give for “QVQLVESGGGLVQAGGSLRLSCAASGRTFTGYTKGWYRQAPGKEREFVAAISSNGGRTYYADSVKGRFTISRDNAKNTVYLQMNSLKPEDTAVYYCAARYTFWGQGTQVTVSS” here?
Its value is “high polyreactivity”.

Which “polyreactivity (PSR sort gate)” value does the source give for “QVQLVESGGGLVQAGGSLRLSCAASGRTFTIYAMGWYRQAPGKERDLVAAITRSGGGTYYADSVKGRFTISRDNAKNTVYLQMNRLKPEDTAVYYCARDKHWFYGVIGPEDYWGQGTQVTVSS” here?
Its value is “low polyreactivity”.

For “QVQLVESGGGLVQAGGSLRLSCAASGRTFTIYAMGWYRQAPGKERELVAGITSAGRTYYADSVKGRFTISRDNAKNTVYSQMNSLNPEDTAVDYCAASGSYAIVWGDQYYGYYYWGQGTQVTVSS”, which “polyreactivity (PSR sort gate)” value is on record?
The value was “high polyreactivity”.

For “QVQLVESGGGLVQAGGSLRLSCAASGRTFTNNAMGWYRQAPGKERELVAAIRWSGGYTYYADSVKGRFTISRDNAKNTVYLQMNSQKPEDTAVYYCAKGYGYVEAVIVQYDYWGQGSQVTVSS”, which “polyreactivity (PSR sort gate)” value is on record?
Its value is “low polyreactivity”.

For “QVQLVESGGGLVQAGGSLRLSCAASGRTFTPYAKGWYRQAPGKERELVATISSGTSTNYADSVKGRFTISLDNAKYTVYLQMNSLKPEDTAVYYCAADGYTYKFDYWGQGSQVTVSS”, which “polyreactivity (PSR sort gate)” value is on record?
Its value is “low polyreactivity”.

Which “polyreactivity (PSR sort gate)” value does the source give for “QVQLVESGGGLVQAGGSLRLSCAASGRTFTPYTRGWYRQAPGKEREFVPAIRTGGNTYYADSVKGRFTISRDNAKNTVYLQMNSLKPEDTAVYYCAARDRIGYRLYYWGQGTQVTVSS” here?
Its value is “high polyreactivity”.

For “QVQLVESGGGLVQAGGSLRLSCAASGRTFTQNAMGWYRQAPGKERELVAAISSGGRTYYADSVKGRFTISRDNAKNTVYLQMNSLKPEDTAVYYCNAGGGRRMYWGLGTQVTVSS”, which “polyreactivity (PSR sort gate)” value is on record?
Its value is “high polyreactivity”.

For “QVQLVESGGGLVQAGGSLRLSCAASGRTFTQYAMGWYRQAPGKERELVARISYSGGTTYYADSVKGRFTISRDNAKNTVYLQMNSLKPEDNAVYYCAKARVVAGYDYWGQGTQVTVSS”, which “polyreactivity (PSR sort gate)” value is on record?
The value was “high polyreactivity”.

For “QVQLVESGGGLVQAGGSLRLSCAASGRTFTRNVMGWYRQAPGKERELVARISYSGGSTSYADSVKGRFTISRDNAKNTVYLQMNSLKPEDTAVYYCAKYSGKYVSGRYRYYSWGQGTQVTVSS”, which “polyreactivity (PSR sort gate)” value is on record?
Its value is “high polyreactivity”.

Which “polyreactivity (PSR sort gate)” value does the source give for “QVQLVESGGGLVQAGGSLRLSCAASGRTFTRYAMGWYRQAPGKERELVAAISWSGGSTYYADSVKGRFTISRDNAKNTVYLQMNSLKPEDTAVYYCNAYYYYPEFNYWGLGTQVTVSS” here?
The value was “high polyreactivity”.

With “QVQLVESGGGLVQAGGSLRLSCAASGRTFTRYAMGWYRQAPGKERELVAAITSSGRTYYADSVKGRFTISRDNAKNTVYLQMNSLKPEDTAVYYCAKYRANALNYANRGAGDYWGQGTQVTVSS” as the sequence, how does the “polyreactivity (PSR sort gate)” value read?
Its value is “high polyreactivity”.

With “QVQLVESGGGLVQAGGSLRLSCAASGRTFTRYAMGWYRQAPGKERELVASISSRGTRTYYADSVKGRFTISRDNAKNTVYLQMNSLKPDDTAVYYCNVGFYPYYFLTYQGGDYWGQGTQVTVSS” as the sequence, how does the “polyreactivity (PSR sort gate)” value read?
The value was “high polyreactivity”.

For “QVQLVESGGGLVQAGGSLRLSCAASGRTFTSNAMGWYRPAPGKERELVAAITQSGGSTYYADSVKGRFTISRDNAKNTVYLQMNSLKPEDTAVYYCNAETTGRTEYNYWGQGTQVTVSS”, which “polyreactivity (PSR sort gate)” value is on record?
The value was “low polyreactivity”.

For “QVQLVESGGGLVQAGGSLRLSCAASGRTFTSNAMGWYRQAPGKERELVAAITRGGSTYYADSVKGRFTISRDNAKNTVYLQMNSLKPEDTAVYYCNAGIYFRRKRYDYWGQGTQVTVSS”, which “polyreactivity (PSR sort gate)” value is on record?
Its value is “high polyreactivity”.

Which “polyreactivity (PSR sort gate)” value does the source give for “QVQLVESGGGLVQAGGSLRLSCAASGRTFTVNAMGWYRQAPGKERELVARISYGGARTYYADSVKGRFTISRDNAKNTVYLQMNSLKPEDTAVYYSAAPGPRKYEYDYWGQGTQVTVSS” here?
The value was “high polyreactivity”.

With “QVQLVESGGGLVQAGGSLRLSCAASGRTFTVYAMGWYRQAPGKERELVAAIIYSGGRTYYADSVKGRFTISRDNAKNTVYLQMNSLKPEDTAVYYCAAYVYQSCPRFSRYGGYDYWGQGTQVTVSS” as the sequence, how does the “polyreactivity (PSR sort gate)” value read?
Its value is “low polyreactivity”.

Which “polyreactivity (PSR sort gate)” value does the source give for “QVQLVESGGGLVQAGGSLRLSCAASGRTFTVYAMGWYRQAPGKERELVAAIRRRGGSTYYADSVKGRFTISRDNAKNTVYLQMNSLKPEDTAVYYCAADNWYKKQKRPSAYDYWGQGTQVTVSS” here?
The value was “high polyreactivity”.

Which “polyreactivity (PSR sort gate)” value does the source give for “QVQLVESGGGLVQAGGSLRLSCAASGRTFTVYAMGWYRQAPGKERELVAAIRRTGSTYYADSVKGRFTISRDNAKNTVYLQMNSLKPEDTAVYYCNAEGSSVLTGYWGYPPYWDTYDYWGQGTQVTVSS” here?
The value was “low polyreactivity”.

Which “polyreactivity (PSR sort gate)” value does the source give for “QVQLVESGGGLVQAGGSLRLSCAASGRTFTYYAIGWYRQAPGKERELVADINRSGGDTYYADSVKGRFTISRDNAKNTVYLQMNSLKPEDTAVYYSAADDWGAQHRYDYWGQGTQVTVSS” here?
Its value is “low polyreactivity”.

With “QVQLVESGGGLVQAGGSLRLSCAASGRTFTYYAMGWSRQAPGKERELVASITSGGSTYADSVKGRFTISRDNAKNTVYLQMNSLKPEDTAVYYCAARAWGYRYKYYWGQGTQVTVSS” as the sequence, how does the “polyreactivity (PSR sort gate)” value read?
The value was “high polyreactivity”.

With “QVQLVESGGGLVQAGGSLRLSCAASGRTFVFNAMGWYRPAPGKERELVAAITKNGGSTYYADSVKGRFTISRDNAKNTVYLQMNSLKPEDTAVYYCAAQWWRLYWEYYYWGQGTQVTVSS” as the sequence, how does the “polyreactivity (PSR sort gate)” value read?
The value was “low polyreactivity”.

With “QVQLVESGGGLVQAGGSLRLSCAASGRTFVFNAMGWYRQAPGKERELVAAISARGGRTYYADSVKGRFTISRDNAKNTVYLQMNSLKPEDTAVYYCATVPYPNRKVGVDYWGQGTQVTVSS” as the sequence, how does the “polyreactivity (PSR sort gate)” value read?
Its value is “high polyreactivity”.

Which “polyreactivity (PSR sort gate)” value does the source give for “QVQLVESGGGLVQAGGSLRLSCAASGRTFVFNAMGWYRQAPGKERELVAAITKNGGSTYYADSVKGRFTISRDNAKNTVYLQMNSLKPEDTAVYYCAVRRGYPFYYWGQGTQVTVSS” here?
The value was “low polyreactivity”.
